From article PMC8357241
pKd: −log10 of the molar value.

Tested on: PARP1
Assay: fluorescence polarization
Details: EMSA: 20 mM Hepes pH 7.8, 150 mM NaCl, 2 mM MgCl2, 0.5 mM TCEP, 0.05 mg/ml BSA; TIRF same salts with 1 mg/ml BSA, 1 mg/ml beta-casein, 500 nM SYTOX Orange …

DNA dumbbell containing a SSB gave a pKd of 7.15.
